# Results taken from patent US20140235820A1, “METHODS AND COMPOSITIONS FOR MODULATING THE Wnt PATHWAY” (Genentech, Inc., priority 2010, published 2014).
# Target: T1, LRP6 E4 (Homo sapiens, UniProt O75581)
# T1 construct: construct E4-T933-Q1253; made in house; host or cells: Tni insect cells (baculovirus, secreted)
# T1 sequence (O75581 933-1253): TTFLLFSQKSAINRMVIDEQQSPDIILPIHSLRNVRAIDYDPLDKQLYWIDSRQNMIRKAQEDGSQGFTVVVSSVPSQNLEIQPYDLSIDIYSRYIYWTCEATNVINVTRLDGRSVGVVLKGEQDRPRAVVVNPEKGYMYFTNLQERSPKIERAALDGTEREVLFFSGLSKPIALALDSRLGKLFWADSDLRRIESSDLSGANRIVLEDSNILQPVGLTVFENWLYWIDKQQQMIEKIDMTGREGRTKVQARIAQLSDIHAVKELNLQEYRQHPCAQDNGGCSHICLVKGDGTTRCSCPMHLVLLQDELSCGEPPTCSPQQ
# Experiment: Biolayer interferometry binding to LRP6 E4
# Method: Binding kinetics were measured by biolayer interferometry using an Octet Red instrument (ForteBio) as previously described (11). Streptavidin (SA) biosensors were loaded with biotinylated hLRP6 in 50 mMTris, pH 8, 300 mM NaCl, 5% (v/v) glycerol, and 0.05% (w/v) Triton X-100. The loaded biosensors were washed in the same buffer before carrying out association and dissociation measurements for the indicated times. The Kd of each interaction was determined using steady state-analysis through the Octet Red software v6.3. Each reported value represents an average of three or more experiments at different concentrations, with a fitted experimental curve for which the square of the correlation coefficient (R^2) is above 0.96.
# The interaction of the different Dkks and sclerostin with various domains of LRP6 was measured using a biolayer interferometry assay (11). Purified receptors contained individual β-propeller-EGF-like units (E1, E2, or E4), two β-propellers (E1E2 or E3E4), or four β-propellers (E1E4))—as follows:
# Human LRP6: construct E1E4-amino acids A20-Q1253 of LPR6; construct E1E2-amino acids A20-E631 of LPR6; construct E3E4 amino acids E631-Q1253 of LPR6; construct E1-amino acids A20-D325 of LPR6; construct E2-amino acids […]-E631 of LPR6; construct E4-T933-Q1253. The individual LRP6 β-propeller E3 could not be expressed.
substance,measurement,value
"Dkk1: Dickkopf 1 protein, Wnt pathway inhibitor, expressed in insect cells (NSNAIKN)",binding to LRP6 E4 (in words),undetectable
